Measurements published in US20170066816A1 (University of Texas, published 2017).

B1: murine m1B7 antibody (antibody, V domains shown)
VH: QVQLQQPGSELVRPGASVKLSCKASGYKFTSYWMHWVKQRPGQGLEWIGNIFPGSGSTNYDEKFNSKATLTVDTSSNTAYMQLSSLTSEDSAVYYCTRWLSGAYFDYWGQGTTLTVSS
VL: QIVLTQSPALMSASPGEKVTMTCSASSSVSFMYWYQQKPRSSPKPWIYLTSNLPSGVPARFSGSGSGTSYSLTISSMEAEDAATYYCQQWSSHPPTFGSGTKLEIK
notes: also called parental murine 1B7 antibody
B2: chimeric 1B7 antibody (antibody, V domains shown)
VH: B1 VH
VL: B1 VL
notes: also called ch1B7
B3: murine m11E6 antibody (antibody, V domains shown)
VH: EVKVVESGGGLVQPGGSLRLSCTTSGFTFTDYYVSWVRQPPGKALEWLGFIRNKVNGYTTEFSSSVKGRFTISRDNSQSILYLQMNTLRVEDSATYYCARVSYYGRGWYFDYWGQGTTLTVSS
VL: DIVMTQSTSSLSASLGDRVTISCRASQDIDNYLSWFQQKPDGTVKLLIYYTSRLHSGVPSRFSGSGSGTDYSLTISSLDQEDIATYFCQQGNTFPWTFGGGTKLEIK
notes: also called parental murine 11E6 antibody

Target: T1, pertussis toxin protein (Bordetella pertussis, UniProt P04977 35-269; P04978 28-226; P04979 29-227; P0A3R5 43-152; P04981 35-133)
T1 construct: also called PTx; PT
Assay: BIAcore

B1 and B2 are within 1.5-fold of each other in kon: 170000 M⁻¹ s⁻¹ for the first, 150000 M⁻¹ s⁻¹ for the second.

For B3, the kon was 80000 M⁻¹ s⁻¹.
